Legend:
[1] = target: T1, human complement factor C1q (chains A, B and C) (human, UniProt P02745 23-245; P02746 28-253; P02747 29-245); assay: cell-based or functional assay
[2] = target: T1, human complement factor C1q (chains A, …); assay: method not stated; affinity stated in the description

T1 sequence (P02745 23-245 limits assumed, chain 1 of 3): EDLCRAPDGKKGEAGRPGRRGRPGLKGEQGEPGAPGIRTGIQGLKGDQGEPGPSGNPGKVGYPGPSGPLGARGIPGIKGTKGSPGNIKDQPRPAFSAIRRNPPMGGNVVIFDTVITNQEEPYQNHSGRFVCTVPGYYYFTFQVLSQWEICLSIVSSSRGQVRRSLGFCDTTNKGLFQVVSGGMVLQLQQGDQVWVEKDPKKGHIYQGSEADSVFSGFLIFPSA
T1 sequence (P02746 28-253 limits assumed, chain 2 of 3): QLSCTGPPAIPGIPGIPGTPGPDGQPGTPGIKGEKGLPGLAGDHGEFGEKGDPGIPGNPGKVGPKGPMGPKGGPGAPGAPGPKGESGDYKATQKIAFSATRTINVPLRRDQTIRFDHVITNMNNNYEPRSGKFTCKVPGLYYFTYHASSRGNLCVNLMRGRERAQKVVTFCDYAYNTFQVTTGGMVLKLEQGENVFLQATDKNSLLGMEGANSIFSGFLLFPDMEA
T1 sequence (P02747 29-245 limits assumed, chain 3 of 3): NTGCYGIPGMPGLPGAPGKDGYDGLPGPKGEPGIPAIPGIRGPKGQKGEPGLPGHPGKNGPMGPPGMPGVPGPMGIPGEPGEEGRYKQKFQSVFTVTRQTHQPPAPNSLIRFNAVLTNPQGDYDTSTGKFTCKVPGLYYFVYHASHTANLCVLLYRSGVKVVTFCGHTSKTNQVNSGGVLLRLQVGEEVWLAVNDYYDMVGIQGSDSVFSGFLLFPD

IC50 of inhibition of C4 and C3d deposition on human RBCs (flow cytometry) [1]: ~10 nM
Kd [2]: 0.01 nM
B1: FabA, anti-C1q antibody Fab fragment comprising heavy chain Fab fragment of SEQ ID NO: 39 and light chain Fab fragment of SEQ ID NO: 40 (Fab)
heavy: QVQLVQSGAELKKPGASVKVSCKSSGYHFTSYWMHWVKQAPGQGLEWIGVIHPNSGSINYNEKFESRVTITVDKSTSTAYMELSSLRSEDTAVYYCAGERDSTEVLPMDYWGQGTTVTVSSASTKGPSVFPLAPSSKSTSGGTAALGCLVKDYFPEPVTVSWNSGALTSGVHTFPAVLQSSGLYSLSSVVTVPSSSLGTQTYICNVNHKPSNTKVDKKVEPKSCDKTHT
light: DVQITQSPSSLSASLGERATINCRASKSINKYLAWYQQKPGKAPKLLIYSGSTLQSGIPARFSGSGSGTDFTLTISSLEPEDFAMYYCQQHNEYPLTFGQGTKLEIKRTVAAPSVFIFPPSDEQLKSGTASVVCLLNNFYPREAKVQWKVDNALQSGNSQESVTEQDSKDSTYSLSSTLTLSKADYEKHKVYACEVTHQGLSSPVTKSFNRGEC
notes: The heavy chain is truncated after the first heavy chain constant domain of IgG1; also called anti-C1q monovalent Fab; anti-C1q Fab
IC50 for inhibition of hemolysis of CAD-sensitized human RBCs in normal human serum [1]: ~10 nM

From patent US20230391858A1 (ANNEXON, published 2023)
